Laboratory results published in patent US20020102250A1, “Recombinant S. aureus peptide deformylase” (priority 2000, published 2002).

Assays:
[1] = Stability of Fe forms of pdf at serial dilutions with or without catalase; pdf assay coupled to Vibrio aminopeptidase; assay type: biochemical
Experimental: A description of the optimized assay conditions is as follows. The final assay solution contained 50 mM Hepes, 10 mM NaCl, pH 7.0, 0.1% K-casein (Sigma Chemical Co.; St. Louis, Mo.), 100 micromolar formyl-Met-Leu-p-nitroanilide (prepared by standard methods and commercially available from Bachem Bioscience, Inc.; Philadelphia, Pa.; Catalog No. L2030), 5 nanograms of pdf protein (iron form) or 100 nanograms of pdf protein (zinc form), and V. proteolytica aminopeptidase.
(A) 25 microliters of inhibitor in 15% dimethyl sulfoxide (DMSO) (maximum) was pipetted into 96 well microtiter plates (Immulon II from Dynex Technologies; Chantilly, Va.).
(B) 100 microliters of bulk assay solution was pipetted next. This solution is described as follows, and required that the reagents be mixed in the order shown below (enough for 100 assays):
(C) The plate was preincubated at room temperature for 10 minutes.
(D) Finally, 25 microliters of 0.6 mM f-Met-Leu-p-nitroanilide (prepared by adding 120 microliters of 20 mM stock in 100% MeOH to 3,880 microliters of assay buffer) was added.
(E) Each plate was examined in a SpectraMax 250 reader (Molecular Devices Corp.; Sunnyvale, Calif.) using an absorbance of 405 nm. Time points were taken every 20 seconds over a 30 minute time course at 25° C. Since oxidation might be an issue, the plate was mixed to begin the reaction, but not prior to subsequent time points. Addition of anti-oxidant reagents is not required, and preferably reducing agents are not added. Each line was checked for linearity over time and the resulting R^2 value was expected to be greater than about 0.98 for assay validity.
Expression of the iron form of S. aureus or E. coli pdf (known to be unstable) in E. coli was monitored after the addition of 1.6 mM FeCl3 in the media (Luria broth). Incubation was allowed to proceed for 1 hour prior to the addition of IPTG (0.4 mM). Induction continued for 3 hours at 37° C. Cells were isolated and extracted in the presence of catalase (10 micrograms/ml). The purpose of the catalase was to act as an oxygen scavenger to prevent the inactivation of the Fe form of the E. coil pdf. The extracts were subjected to Ni-NTA chromatography for the purification of the C-terminally His tagged versions of both the E. coli and S. aureus pdf proteins. The purified proteins (concentrated to at least 1 mg/ml by ultrafiltration using a membrane available from Amicon; Bedford, Mass.) were stored in the presence of 10 micrograms/ml (minimum concentration) catalase. To examine the stability of the Fe forms of the pdf proteins, dilutions of the proteins were made in the presence or absence of catalase, followed by assays of the enzymes (serially diluted) in the presence or absence of catalase (at 100 micrograms/ml). Assays were run using formyl-Met-Leu-p-nitroanilide as substrate, coupled to the Vibrio aminopeptidase.
The results, which depict linear reactions catalyzed by pdf, are shown in FIG. 2 for S. aureus pdf and FIG. 3 for E. coli pdf. […] The rates shown are in mOD/minute, and each line represents a different concentration of the pdf in nanogram amounts as listed in the legend. […] This is consistent with a significant loss of enzyme activity in the absence of catalase only for the E. coli enzyme. See Rajagopalan et al., J. Amer. Chem. Soc., 119:12418-19 (1997).

[2] = Fe complex, as reported in prior work; cited from earlier work

B1: E. coli pdf: Iron form of E. coli peptide deformylase, C-terminally His tagged, known to be unstable, used for comparison (protein, UniProt P0A6K3 2-169, looked up)
Peptide deformylase: SVLQVLHIPDERLRKVAKPVEEVNAEIQRIVDDMFETMYAEEGIGLAATQVDIHQRIIVIDVSENRDERLVLINPELLEKSGETGIEEGCLSIPEQRALVPRAEKVKIRALDRDGKPFELEADGLLAICIQHEMDHLVGKLFMDYLSPLKQQRIRQKVEKLDRLKARA
modifications: C-terminal His tag; iron form
Q: For B1, which Vmax ([1]; 125 ng pdf, with added catalase) is on record?
A: 8.4 mOD/minute

Q: What about the Vmax ([1]; 125 ng pdf, without added catalase) of the same molecule?
A: 2.4 mOD/minute

Q: And the Vmax ([1]; 250 ng pdf, with added catalase)?
A: 19.2 mOD/minute

Q: And the Vmax ([1]; 250 ng pdf, without added catalase)?
A: 3.7 mOD/minute

Q: What about the Vmax ([1]; 500 ng pdf, with added catalase) of the same molecule?
A: 45.1 mOD/minute

Q: What about the Vmax ([1]; 500 ng pdf, without added catalase) of the same molecule?
A: 6.5 mOD/minute

Q: What about the Vmax ([1]; 1000 ng pdf, with added catalase) of the same molecule?
A: 133 mOD/minute

Q: What about the Vmax ([1]; 1000 ng pdf, without added catalase) of the same molecule?
A: 18.9 mOD/minute

Q: And the “pdf activity as a function of dilution, with versus without catalase in the assay solution” value ([1]; catalase at 100 micrograms/ml or absent)?
A: rapidly loses activity

B2: Fe complex of pdf: Fe complex of peptide deformylase of the prior art (background, E. coli enzyme context) (protein, UniProt P0A6K3 2-169, looked up)
Peptide deformylase: B1 Peptide deformylase
modifications: iron form
Q: With B2 as the molecule, how does the half-life [2] read?
A: around 30 seconds
